Key:
HUVEC = assay: Tube formation by HUVEC in collagen gel; type: cell-based, human
Experimental: Human Umbilical vein endothelial cells (HUVEC) were obtained by treating fresh human umbilical cord veins with Trypsin-EDTA (1×) (Gibco/Invitrogen) for 20-25 minutes at 37° C. The cells were cultured in a T-25 flask coated with attachment factor (AF), (Cascade Biologics) in RPMI 1640 medium supplemented with 10% FCS, 0.4% BBE, 1% 1-glutamin, 1% penicillin/streptomycin. Primary cultures were detached with warm Trypsin-EDTA and used when confluent at the second or third passage. The cells were maintained in a proliferative state by culturing them in a split ratio 1:2 at an approximate density of the monolayer of about 60-80%. […]
After 2 passages HUVECs were seeded in their culture medium (40×10^3/50 μl/well of a 96-well plate) on a collagen gel (50 μl of collagen I 1.5 mg/ml) prepared by mixing 7.5 volumes of 2 mg/ml collagen (Collagen R; Serva, Heidelberg, Germany), 1 volume of 10× MEM, 1.5 volume of NaHCO3 (15.6 mg/ml) and ˜1 volume of NaOH to adjust the pH to 7.4. […] The assay was performed with a streptavidin antibody used as a control (from 1 ng/ml to 10 μg/ml): The total length of the tube network on the culture surface was quantified at 40× magnification by the METAVUE™ Software (Universal Imaging Corporation). Results from triplicate wells were expressed as mean vessel area per field ±SEM (relative units). […]

[1] = system: LEII lung mouse endothelial cell line; assay: Tube formation by mouse endothelial cell line LEII on […]; type: cell-based; details: LEII cells on MATRIGEL, 16 to 18 hours
Experimental: In order to assess mouse Tie1 cross-reactivity and biological activity on mouse Tie1, both E3 and germlined E3 were evaluated for their ability to inhibit tube formation in vitro using mouse endothelial cell line (LEII).
LEII lung mouse endothelial cell line (ATCC) was cultured in a T-25 flask in MEM medium with GLUTAMAX™ (Life Technologies Ltd., Paisley, Scotland) supplemented with 10% FCS, and 1% penicillin/streptomycin. During culturing, the cells were kept in a proliferative state by culturing them in a split ratio 1:5 at an approximate density of the monolayer of about 80%. LEII monolayers were treated with trypsin/EDTA (500 μl/dish) at 37° C. for 3 min. Trypsin activity was stopped by adding 3 volumes of complete MEM medium. The cells were carefully scraped, separated by repeated pipetting, and finally washed with PBS.LEII cells were seeded in their culture medium (20-40×103/50 μl/well of a 96-well plate) on a basement membrane (BIOCOAT™ Angiogenesis System; Becton Dickinson). […] The total length of the tube network was then quantified at 40× magnification by the METAVUE™ Software (Universal Imaging Corporation). Results from triplicate wells were expressed as mean vessel area per field ±SEM (relative units). […]

B1: E3: human anti-Tie1 antibody from phage Fab library, reformatted as IgG; HC variable SEQ ID NO:114, LC variable SEQ ID NO:116 (antibody, V domains shown)
VH: EVQLLESGGGLVQPGGSLRLSCAASGFTFSMYGMVWVRQAPGKGLEWVSVISPSGGNTGYADSVKGRFTISRDNSKNTLYLQVNSLRAEDTAVYYCARAPRGYSYGYYYWGQGTLVTVSSASTKGPSVFPLAPSSKSTSGG
VL: DIQMTQSPLSLSASVGDRVTITCRASQGIGHYLAWYQQKPGKVPKLLIYTASTLQSGVPSRFSGSGSGTDFTLTINSLQPEDVATYYCQQFNSYPHTFGQGTRLDIK
modifications: IgG constant regions; Synthetically generated peptide
HUVEC; HUVEC, collagen type-I matrix, 0.1 ng/ml to 100 ng/ml tested
  IC50, tube formation: less than 10 ng/ml
HUVEC; collagen type-I gel
  inhibition of tube formation by HUVECs: potent inhibitor of tube formation by HUVECS even at a concentration of 10 ng/ml

B2: DX-2210: E3 antibody in which the light chain has been germlined (antibody, V domains shown)
VH: EVQLLESGGGLVQPGGSLRLSCAASGFTFSMYGMVWVRQAPGKGLEWVSVISPSGGNTGYADSVKGRFTISRDNSKNTLYLQVNSLRAEDTAVYYCARAPRGYSYGYYYWGQGTLVTVSSASTKGPSVFPLAPSSKSTSGG
VL: DIQMTQSPSSLSASVGDRVTITCRASQGIGHYLAWYQQKPGKVPKLLIYTASTLQSGVPSRFSGSGSGTDFTLTISSLQPEDVATYYCQQFNSYPHTFGQGTRLEIK
[1]
  inhibition of tube formation in mouse endothelial cells: potent inhibitor of tube formation in mouse endothelial cells
